# Reference: patent US20070185028A1, “Compositions and methods for treatment of protein misfolding and protein aggregation diseases” (priority 2004, published 2007)
# No end group written: not given here.
# Tests used:
# [1] = as provided by manufacturer (Mimotopes); cited from earlier work
# human γD crystallin = molecular target: T1, human γD crystallin (Homo sapiens, UniProt P07320); experiment: αB crystallin protein pin array with γD crystallin; type: binding; conditions: unheated γD crystallin; similar maxima pre-heated 45° C.
# T1 construct: made in house
# T1 sequence (P07320 1-174): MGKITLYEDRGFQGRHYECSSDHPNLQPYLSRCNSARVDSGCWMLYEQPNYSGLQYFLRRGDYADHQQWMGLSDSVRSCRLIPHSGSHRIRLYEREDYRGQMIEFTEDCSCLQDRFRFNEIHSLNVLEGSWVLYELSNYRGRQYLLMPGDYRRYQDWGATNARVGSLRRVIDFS
# Excerpt: (§1) Synthesis of Pins, binding and detection of peptides binding to ligand proteins. The αB crystallin protein pin array was used to measure the interaction between peptides and chaperone target proteins including bovine βH crystallin, human γD crystallin, equine alcohol dehydrogenase (ADH) and porcine citrate synthase (CS) as described (FIG. 12). Ghosh and Clark, Protein Sci 14: 684-95, 2005.
# (§2) Refer to the methods section for detailed protocols. The absorbance corresponding to the blue coloration in each well was measured at λ=450 nm and plotted against the amino acid sequence of the corresponding peptide in that well (FIGS. 13 and 14). Wells containing peptides that have strong interactions with target proteins are dark blue and wells containing peptides that have weak or no interaction with target proteins are light blue or clear.
# (§3) The purity of the target proteins used in the pin array assays, bovine βH crystallin, human γD crystallin, equine alcohol dehydrogenase (ADH) and porcine citrate synthase (CS) were determined to be >90% by SDS-PAGE. In addition, primary antibodies for each target protein were specific to that target protein and consequently contaminating proteins that may bind to the peptides will not be detected. Eighty-four sequential and overlapping peptide fragments corresponding to residues 1-175 of human αB crystallin were synthesized employing a simultaneous peptide synthesis strategy developed by Geysen, called Multipin Peptide Synthesis (Mimotopes, San Diego, Calif.). Geysen, Southeast Asian J Trop Med Public Health 21: 523-33, 1990; Chin et al., J Org Chem 62: 538-539, 1997. Peptides were immobilized on derivatized polyethylene pins arranged in a microtiter ELISA plate format. Each peptide was eight amino acids in length and consecutive peptides were offset by two amino acids. All peptides were bound covalently to the surface of the plastic pins. The first peptide was 1MDIAIHHP8 and the last peptide was 168PAVTAAPK175 for human αB crystallin.
# (§4) Ghosh and Clark, Protein Sci 14: 684-95, 2005. […] The intensity of the blue color in the wells was measured at 450 nm using an ELISA plate-reader (BioTek, Winooski, Vt.). The intensity of the blue color (plotted on the X-axis) was a measure of the interaction between αB crystallin peptides (plotted on the Y-axis) and target proteins. To measure the effect of temperature on the interactions between interactive peptides and the target proteins, the target proteins were heated in a water-bath at 45° C. for fifteen minutes prior to use. Pin arrays are unable to differentiate between monomers, dimers or oligomers of target proteins that exist in solution. Instead, pin arrays are very sensitive detectors of interactions between individual peptides and the entire population (monomers, dimers or oligomers) of specific target proteins that may exist in solution under specific conditions. Each target protein was assayed two to five times. A single pin array was used for all experiments and no change in interactions was observed after more than thirty repetitions. The last three peptides of the protein pin array, 163REEKPAVT170, 165EKPAVTAA172, 167PAVTAAPK174, correspond to the epitope (163REEKPAVTAAPKK175) recognized by the primary antibody for human αB crystallin. A positive reaction is observed for these three peptides in the absence of human αB crystallin as the ligand due to direct binding of the anti-human αB crystallin antibody to these three peptides. The loss of efficiency for the pin array was measured using this assay. The loss of efficiency for the pin array was determined to be <5% by after more than 30 assays.
# When βH crystallin was replaced with γD crystallin, a native protein constituent of lens cytoplasm from the same gene family as the β crystallins, as the ligand in the pin array, twelve interactive sequences were identified (FIG. 14: striped bars). […]
# beta amyloid = beta amyloid (Homo sapiens, UniProt P05067); experiment: αB crystallin protein pin array, binding of beta amyloid; conditions: immobilized 8-mer peptide; absorption at 450 nm
# Excerpt: αB Crystallin peptides that bind the target protein beta-amyloid were identified by screening an αB crystallin protein pin array, which provides a systematic method for evaluating interactions between peptides corresponding to residues 1-175 of human αB crystallin and selected target proteins in a parallel and simultaneous manner.
# Peptides were synthesized on derivatized polyethylene pins arranged in a microtiter plate format. Each peptide was 8 amino acids in length and consecutive peptides were offset by 2 amino acids. All peptides were covalently bonded to the surface plastic pins. The first immobilized peptide was 1MDIAIHHP8 and the last peptide was 168PAVTAAPK175 for the human αB crystallin.
# After synthesis, the pins were pre-coated at room temperature with 2% Bovine Serum Albumin (BSA), 0.1% Tween-20 and 0.1% Sodium azide in 10 mM phosphate buffered saline pH 7.2 (PBS) for 1 hr, and washed three times for 10 mins each with 10 mM PBS. To screen for binding to the peptides, fixed concentrations of the target protein beta amyloid was dissolved in 10 mM PBS, containing 0.05% Tween-20, added to each well and incubated for 1 hr at room temperature. The pin array was washed three times for 10 mins each with 10 mM PBS, containing 0.05% Tween-20. Monoclonal or polyclonal primary antibodies for the target protein beta amyloid was diluted into PBS buffer, added to each well and incubated for 1 hr at room temperature. Subsequently, the pin array was washed three times for 10 mins each with 10 mM PBS containing 0.05% Tween-20. Anti-rabbit horse-radish peroxidase conjugate secondary antibodies was diluted into PBS buffer, added to each well and incubated for 1 hr at room temperature. The pin array was washed three times for 10 mins each with 10 mM PBS containing 0.05% Tween-20. A chromogenic substrate of horse-radish peroxidase 3,3′,5,5′-Tetramethylbenzidine (TMB) (Pharmingen, San Diego, Calif.) which is colorless was added, and the reaction was carried out for 45 min.
# The reaction was stopped by adding 6N sulfuric acid, which changes the color from blue to yellow. The absorption at 450 nm was measured by an ELISA reader (BioTek, Winooski, Vt.).
# The pin array was regenerated by sonication in a water bath (VWR Aquasonic, West Chester, Pa.) with 100 mM PBS, containing 1% Sodium dodecyl sulfate (SDS) and 0.1% 2-Mercaptoethanol@60° C. for 10 mins. Next, the pin array was rinsed three times in deionized water, preheated to 60° C. for 30 secs each time, and shaken in water preheated at 60° C. for 30 min. The pin array was then washed with methanol at 60° C. for 15 secs and air-dried and stored @−20° C. for future use. Each target protein was assayed 2-5 times against the human αB crystallin protein pin array peptides to verify the reproducibility of the results. Peptides numbered 5, 7, 8, 9, 13, 19, 22, 23, 24, 27, 35, 38, 45, 51, 52, 56, 57, 61, 66, 71, 72, and 79 in Table 2 reproducibly tested positive in the protein pin assay.
# bovine βH crystallin = experiment: αB crystallin protein pin array with βH crystallin; type: binding; conditions: unheated βH crystallin, 23° C.; similar maxima pre-heated 45° C.
# Excerpt: as §1, §2, §3, §4
# Protein pin arrays enabled the identification of interactive sequences necessary for the chaperone activity of human αB crystallin. Interactions between immobilized 8-mer human αB crystallin peptides and unheated and pre-heated βH crystallin, a natural protein constitute of lens cells, were measured as absorbances at λ=450 nm at 23° C. […]
Sequence,Hydrophobicity [1],other results
HGFISREF [Peptide 56],0.48,"absorbance at 450 nm, interaction with γD crystallin (human γD crystallin): maximum absorbances; binding of beta amyloid in the protein pin assay (beta amyloid): positive"
VNGPRKQV [Peptide 73],0.04,
LSEMRLEK [Peptide 33],0.16,
HESPEELK [Peptide 42],0.25,
PERTIPIT [Peptide 78],0.49,
QVSGPERT [Peptide 76],0.04,
DPLTITSS [Peptide 65],0.49,
EKPAVTAA [Peptide 83],0.19,
SPEELKVK [Peptide 43],0.04,
SDGVLTVN [Peptide 70],0.37,
EMRLEKDR [Peptide 34],−0.27,
FDTGLSEM [Peptide 31],0.44,
SPSRLFDQ [Peptide 10],0.27,
RQDEHGFI [Peptide 54],0.14,
LESDLFPT (also: covalently bound to polyethylene pin) [Peptide 17],0.59,
RRPFFPFH [Peptide 6],0.62,
DQFFGEHL [Peptide 13],0.47,"absorbance at 450 nm, interaction with γD crystallin (human γD crystallin): maximum absorbances; binding of beta amyloid in the protein pin assay (beta amyloid): positive"
LFDQFFGE [Peptide 12],0.68,
ITSSLSSD [Peptide 67],0.35,
LKVKVLGD [Peptide 45],0.39,"absorbance at 450 nm, interaction with βH crystallin (bovine βH crystallin): Maximum absorbances; binding of beta amyloid in the protein pin assay (beta amyloid): positive"
SRLFDQFF [Peptide 11],0.63,
EELKVKVL [Peptide 44],0.32,

Sequence,Hydrophobicity [1],other results
VKVLGDVI [Peptide 46],0.68,
EKDRFSVN [Peptide 36],−0.13,
HLLESDLF [Peptide 16],0.7,
TGLSEMRL [Peptide 32],0.4,
HRKYRIPA [Peptide 60],0.11,
DEHGFISR [Peptide 55],0.16,
SGPERTIP [Peptide 77],0.23,
VNLDVKHF [Peptide 39],0.46,
VKHFSPEE [Peptide 41],0.19,
IHHPWIRR [Peptide 3],0.6,
ITREEKPA [Peptide 81],−0.02,
KYRIPADV [Peptide 61],0.28,"absorbance at 450 nm, interaction with βH crystallin (bovine βH crystallin): Maximum absorbances; binding of beta amyloid in the protein pin assay (beta amyloid): positive"
IPITREEK [Peptide 80],0.16,
STSLSPFY [Peptide 21],0.66,
EERQDEHG [Peptide 53],−0.47,
SWFDTGLS [Peptide 30],0.64,
RKQVSGPE [Peptide 75],−0.12,
LSSDGVLT [Peptide 69],0.5,
PPSFLRAP [Peptide 26],0.61,"absorbance at 450 nm, interaction with βH crystallin (bovine βH crystallin): Maximum absorbances"
EVHGKHEE [Peptide 50],−0.18,
VIEVHGKH [Peptide 49],0.36,
KHEERQDE [Peptide 52],−0.6,binding of beta amyloid in the protein pin assay (beta amyloid): positive

Sequence,Hydrophobicity [1],other results
RIPADVDP [Peptide 62],0.28,
APSWFDTG [Peptide 29],0.56,
VLGDVIEV [Peptide 47],0.72,
GEHLLESD [Peptide 15],0.18,
SSLSSDGV [Peptide 68],0.25,
IAIHHPWI [Peptide 2],1.12,"absorbance at 450 nm, interaction with γD crystallin (human γD crystallin): maximum absorbances"
REEKPAVT [Peptide 82],−0.1,
GDVIEVHG [Peptide 48],0.37,
HPWIRRPF [Peptide 4],0.67,
PAVTAAPK [Peptide 84],0.36,
GPRKQVSG [Peptide 74],−0.04,
MDIAIHHP [Peptide 1],0.67,
PTSTSLSP [Peptide 20],0.44,
SDLFPTST [Peptide 18],0.49,
DRFSVNLD [Peptide 37],0.19,
EFHRKYRI [Peptide 59],0.13,"absorbance at 450 nm, interaction with γD crystallin (human γD crystallin): maximum absorbances"
DVDPLTIT [Peptide 64],0.55,
HGKHEERQ [Peptide 51],−0.41,binding of beta amyloid in the protein pin assay (beta amyloid): positive
LDVKHFSP [Peptide 40],0.47,
FHSPSRLF [Peptide 9],0.63,binding of beta amyloid in the protein pin assay (beta amyloid): positive
PADVDPLT [Peptide 63],0.42,
SPFYLRPP [Peptide 23],0.7,"absorbance at 450 nm, interaction with βH crystallin (bovine βH crystallin): Maximum absorbances; binding of beta amyloid in the protein pin assay (beta amyloid): positive"
